Test results as given in paper PMC11481913, “Rational design of a flavoenzyme for aerobic nicotine catabolism” (mBio, 2024).

Target: the molecule itself
Assay: SEC; Superdex 200 Increase 10/300 GL; molecular weight by elution (Fig. S2)

B1: PnaoΔN30 (residues 31–497) (enzyme, Pseudomonas putida S16, UniProt F8G0P1 31-496, looked up)
chain: IASQLLTLSAPAEAAVKTNVGPSRAGVGYDVIVIGGGFAGVTAAREASRSGLKTLILEGRSRLGGRTFTSKLQNQKVELGGTWVHWTQPNVWTEIMHYGLEVEETVGLANPETVIWVTEDNVKRAPAAEAFEIFGSACNEYYKEARNIYPRPFEPFFERKKLQHVDGLSAADYLEKLPLTREQKDMMDSWLSGNGHNYPETIAYSEIMRWFALSNFNMPTMFDSIARYKIKTGTHSLLEAIMADGNSEVKLSTPVTKVNQDKDKVTVTTEDGVFTASAVIVAVPINTLHDIEYSPKLSAAKVDMGSQRHAGAGVKGYIRVKQNVGNVMTYAPARNKLTPFTSVFTDHVDESGTLLIAFSADPKLIDINDIKAVEKALQPLLPGVEVTASYGYDWNLDPFSKGTWCTYRPNQTTRYLTELQKREGRLFFAGSDMANGWRGFIDGAIENGREVGHQVATYLKRENDNA
notes: Pnao, flavin-dependent pseudooxynicotine oxidase of Pseudomonas putida S16; N-terminal truncation of 30 residues, residues 31-497; Cloned in pET-28a between NcoI and XhoI, which probably gives a C-terminal His6 tag; also called pseudooxynicotine amine oxidase; source: E. coli BL21(DE3), purified (Ni2+-NTA, size-exclusion chromatography)
stoichiometry N: 2
